Experiment [1] deals with soluble KGF receptor (FGFR(IIIb); K-sam) alkaline phosphatase fusion (FRAP) (murine) (UniProt P21803). Nature of the experiment: displacement of 125I-FGF-7 from soluble FGFR2(IIIb)-AP. Background: Loss of bound radioactivity is the signal in a displacement assay; it reports binding, not function.
The target is the same in experiment [2]. Description: competition with 125I-FGF-7, receptor binding experiments like those of Example 6.

The record followed here is patent EP0730651B1.

Chain of UniProt P21803 (P21803 22-377): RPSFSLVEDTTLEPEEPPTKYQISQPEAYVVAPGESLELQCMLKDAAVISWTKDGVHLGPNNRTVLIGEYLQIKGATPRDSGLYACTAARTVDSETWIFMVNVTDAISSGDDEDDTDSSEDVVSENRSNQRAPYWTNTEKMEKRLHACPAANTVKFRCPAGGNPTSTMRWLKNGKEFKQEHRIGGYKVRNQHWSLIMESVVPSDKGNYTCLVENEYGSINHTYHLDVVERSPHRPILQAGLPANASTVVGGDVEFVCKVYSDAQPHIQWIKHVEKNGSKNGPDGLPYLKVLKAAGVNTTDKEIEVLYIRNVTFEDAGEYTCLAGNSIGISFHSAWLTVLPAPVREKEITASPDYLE

For “FGF-2LA (human FGF-2 with surface loop residues 118 to 122 replaced by the corresponding bovine FGF-1 sequence) (ligand)”, the fold weaker binding than FGF-7 or FGF-1 in experiment [1] was determined as 5 times less.

As to “FGF-2LK (FGF-2 loop mutant containing the 9-residue loop sequence Ala-Lys-Trp-Thr-His-Asn-Gly-Gly-Glu from FGF-7) (from UniProt P09038 1-117; P09038 123-155) (ligand)”, in experiment [2], the fold weaker potency of competition than unlabelled FGF-7 turned out to be 100 times weaker.
